Measured values: the supplement of paper PMC6757056
± gives the standard deviation of the averaged measurements.

B1: library; a variant is named by its letters at N, in order (parent)
chain: GCUGUCACCGGUGUAUUACCCUAGUGGUCGACCGGUCUGAUGAGUCUNNNNNNAGACGAAACAGC

Columns and labels:
[1] = variants of: B1; assay: FACS-Seq fitted mean relative fluorescence mCherry/BFP without ligand (log10 relative fluorescence); ligand: hypoxanthine (xanthine aptamer); higher = higher reporter protein expression; conditions: HEK293T, ligand present: no
In short: (§1)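 With or without ligand for 48 h, enriched HEK293T libraries carrying a lentiviral ribozyme-switch mCherry reporter and EF1α-BFP were sorted into 6 mCherry/BFP bins. Bin genomic DNA was amplified by PCR, barcoded and sequenced on MiSeq. Fluorescence was taken from normal fits to the resulting bin counts. Each fitted mean of log10(mCherry/BFP) was scaled to five spiked-in control ribozymes.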

[2] = variants of: B1; assay: normalized RNA/DNA level with ligand (relative to sTRSVctl = 100) (log10 (% of sTRSVctl)); ligand: hypoxanthine (xanthine aptamer); higher = less ribozyme self-cleavage, higher mRNA level; conditions: ligand concentration (+) RNA-Seq: 5 mM, HEK293T, reporter: mCherry (pCS4076), ligand present: yes
In short: (§2)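 Ribozyme switch library plasmids with mCherry reporters (eGFP in certain ligand experiments) went into HEK293T cells at 4 µg per 6-well well. Where ligand was used, it was applied 1 h before transfection, and total RNA was extracted with EDTA 72 h later for reverse transcription, amplification, barcoding and sequencing. RNA level is the RNA-to-DNA read ratio normalized to a spiked-in non-cleaving sequence or to the leading sequences, then scaled and log-transformed. Scaling was ×100 with log10, the leading set comprised 25 sequences, and the cutoff was ≥100 DNA reads.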

[3] = variants of: B1; assay: normalized RNA/DNA level without ligand (relative to sTRSVctl = 100) (log10 (% of sTRSVctl)); ligand: hypoxanthine (xanthine aptamer); higher = less ribozyme self-cleavage, higher mRNA level; conditions: HEK293T, reporter: mCherry (pCS4076), ligand present: no
In short: as §2

[4] = variants of: B1; assay: FACS-Seq fitted mean relative fluorescence mCherry/BFP with ligand (log10 relative fluorescence); ligand: hypoxanthine (xanthine aptamer); ligand concentration (+) FACS-Seq: 5 mM; higher = higher reporter protein expression; conditions: HEK293T, ligand present: yes
In short: as §1

Variant | FACS-Seq fitted mean (log10) [1] | normalized RNA/DNA level with ligand (log10) [2] | normalized RNA/DNA level without ligand (log10) [3] | FACS-Seq fitted mean (log10) [4]
GCCCUG | -0.113 ± 0.029 | 1.873 ± 0.0091 | 1.49 ± 0.049 | 0.497 ± 0.092
UCCCUG | 0.429 ± 0.01 | 1.87 ± 0.076 | 1.41 ± 0.0038 | 0.587 ± 0.0069
ACCCUG | 0.60276 ± 0.00041 | 1.875 ± 0.0043 | 1.411 ± 0.0069 | 0.786 ± 0.12
GCCCUU | 0.019 ± 0.061 | 1.95 ± 0.065 | 1.92 ± 0.058 | 0.231 ± 0.0079
GCCGAA | 0.359 ± 0.087 | 1.96 ± 0.071 | 1.756 ± 0.0038 | 0.445 ± 0.055
GCCGAG | 0.182 ± 0.0042 | 1.856 ± 0.013 | 1.39 ± 0.019 | 0.5906 ± 0.0027
UCCGAG | 0.3183 ± 0.002 | 1.82 ± 0.054 | 1.38 ± 0.049 | 0.517 ± 0.0072
GCCGAU | 0.193 ± 0.041 | 1.96 ± 0.027 | 1.76 ± 0.045 | -0.0573 ± 0.24
ACCGAU | 0.387 ± 0.047 | 1.89 ± 0.056 | 1.669 ± 0.0087 | 0.531 ± 0.015
CCCGCA | -0.714 ± 0.04 | 1.94 ± 0.028 | 1.91 ± 0.022 | -0.0625 ± 0.038
GCCGCA | 0.533 ± 0.054 | 1.96 ± 0.067 | 1.845 ± 0.0021 | 0.587 ± 0.027
ACCGCC | 0.708 ± 0.051 | 1.938 ± 0.0023 | 1.879 ± 0.0089 | 0.737 ± 0.025
GCCGCG | 0.226 ± 0.012 | 1.94 ± 0.045 | 1.521 ± 0.0049 | 0.576 ± 0.024
UCCGCG | 0.209 ± 0.032 | 1.894 ± 0.009 | 1.512 ± 0.011 | 0.621 ± 0.055
ACCGCG | 0.331 ± 0.028 | 1.826 ± 0.015 | 1.5 ± 0.097 | 0.608 ± 0.026
CCCGGA | 0.102 ± 0.0056 | 1.97 ± 0.042 | 1.88 ± 0.036 | 0.0786 ± 0.0026
UCCGGA | 0.226 ± 0.02 | 1.96 ± 0.031 | 1.75 ± 0.021 | 0.384 ± 0.0052
CCCGGG | 0.92 ± 0.051 | 1.94 ± 0.12 | 1.6826 ± 0.0015 | 0.833 ± 0.061
UCCGGG | -0.0285 ± 0.023 | 1.98 ± 0.047 | 1.93 ± 0.031 | 0.2736 ± 0.00093
ACCGGG | 0.153 ± 0.0079 | 1.944 ± 0.015 | 1.89 ± 0.038 | 0.548 ± 0.0066
GCCGGU | 0.478 ± 0.08 | 1.957 ± 0.01 | 1.982 ± 0.01 | 0.744 ± 0.043
ACCGUA | 0.247 ± 0.0083 | 1.93 ± 0.065 | 1.822 ± 0.014 | 0.474 ± 0.038
UCCGUG | 0.223 ± 0.023 | 1.91 ± 0.071 | 1.47 ± 0.072 | 0.508 ± 0.065
GCCGUU | -0.297 ± 0.0052 | 1.978 ± 0.019 | 1.92 ± 0.051 | 0.037 ± 0.093

Variant | FACS-Seq fitted mean (log10) [1] | normalized RNA/DNA level with ligand (log10) [2] | normalized RNA/DNA level without ligand (log10) [3] | FACS-Seq fitted mean (log10) [4]
UCCGUU | -0.463 ± 0.04 | 1.946 ± 0.016 | 1.925 ± 0.019 | -0.148 ± 0.1
CCCUAA | 0.693 ± 0.022 | 1.94 ± 0.022 | 1.907 ± 0.011 | 0.837 ± 0.06
GCCUAA | 0.363 ± 0.14 | 1.94 ± 0.071 | 1.8319 ± 0.00042 | 0.558 ± 0.036
UCCUAC | 0.76 ± 0.022 | 2.01 ± 0.096 | 1.88 ± 0.076 | 0.751 ± 0.058
ACCUAC | 0.113 ± 0.032 | 1.92 ± 0.035 | 1.85 ± 0.05 | 0.264 ± 0.013
GCCUAG | 0.303 ± 0.03 | 1.89 ± 0.097 | 1.5 ± 0.12 | 0.678 ± 0.037
ACCUAG | -0.692 ± 0.013 | 1.86 ± 0.03 | 1.58 ± 0.016 | -0.308 ± 0.028
GCCUCG | 0.33703 ± 0.00012 | 1.91 ± 0.039 | 1.6 ± 0.029 | 0.649 ± 0.049
CCCUCU | 0.556 ± 0.081 | 1.98 ± 0.036 | 1.994 ± 0.015 | 0.481 ± 0.086
CCCUGA | 0.263 ± 0.023 | 1.92 ± 0.031 | 1.88 ± 0.039 | 0.308 ± 0.011
GCCUGA | 0.389 ± 0.04 | 1.99 ± 0.022 | 1.81 ± 0.038 | 0.6019 ± 0.0038
ACCUGA | 0.156 ± 0.046 | 1.96 ± 0.021 | 1.79 ± 0.049 | 0.323 ± 0.057
UCCUGC | 0.86 ± 0.054 | 2.01 ± 0.056 | 1.919 ± 0.018 | 0.812 ± 0.091
UCCUGG | 0.439 ± 0.047 | 1.94 ± 0.025 | 1.77 ± 0.073 | 0.518 ± 0.021
ACCUGG | 0.3055 ± 0.0017 | 1.914 ± 0.011 | 1.55 ± 0.021 | 0.817 ± 0.071
CCCUUA | 0.315 ± 0.0096 | 2.002 ± 0.019 | 1.905 ± 0.014 | 0.279 ± 0.083
GCCUUA | -0.138 ± 0.047 | 1.97 ± 0.0091 | 1.92 ± 0.026 | -0.197 ± 0.092
GCCUUC | -0.325 ± 0.056 | 1.968 ± 0.0039 | 1.88 ± 0.058 | 0.101 ± 0.059
GCCUUG | 0.213 ± 0.0088 | 1.93 ± 0.05 | 1.46 ± 0.016 | 0.64 ± 0.021
ACCUUG | 0.241 ± 0.0074 | 1.88 ± 0.014 | 1.6 ± 0.055 | 0.521 ± 0.04
CCGAAA | 0.595 ± 0.015 | 1.91 ± 0.049 | 1.7 ± 0.04 | 0.689 ± 0.05
GCGAAA | 0.172 ± 0.045 | 1.878 ± 0.0072 | 1.49 ± 0.019 | 0.404 ± 0.021
UCGAAA | 0.163 ± 0.02 | 1.86 ± 0.052 | 1.4 ± 0.051 | 0.395 ± 0.045
ACGAAA | 0.129 ± 0.049 | 1.86 ± 0.039 | 1.47 ± 0.056 | 0.425 ± 0.036

Variant | FACS-Seq fitted mean (log10) [1] | normalized RNA/DNA level with ligand (log10) [2] | normalized RNA/DNA level without ligand (log10) [3] | FACS-Seq fitted mean (log10) [4]
GCGAAC | 0.0198 ± 0.0047 | 1.711 ± 0.0065 | 1.13 ± 0.044 | 0.61 ± 0.033
CCGAAG | -0.0351 ± 0.034 | 1.719 ± 0.0075 | 1.2 ± 0.14 | 0.496 ± 0.027
GCGAAG | -0.383 ± 0.014 | 1.46 ± 0.12 | 0.925 ± 0.14 | 0.417 ± 0.06
UCGAAG | 0.5 ± 0.074 | 1.87 ± 0.039 | 1.417 ± 0.0057 | 0.746 ± 0.025
ACGAAG | -0.023 ± 0.0073 | 1.49 ± 0.041 | 1.072 ± 0.0031 | 0.501 ± 0.023
GCGAAU | -0.142 ± 0.009 | 1.833 ± 0.015 | 1.417 ± 0.013 | 0.291 ± 0.022
ACGAAU | 0.0248 ± 0.013 | 1.77 ± 0.0059 | 1.19 ± 0.025 | 0.504 ± 0.01
GCGACA | 0.145 ± 0.041 | 1.888 ± 0.012 | 1.57 ± 0.04 | 0.28 ± 0.021
ACGACA | 0.53 ± 0.013 | 1.912 ± 0.013 | 1.638 ± 0.016 | 0.613 ± 0.031
CCGACC | 0.287 ± 0.081 | 2.08 ± 0.082 | 1.85 ± 0.063 | 0.555 ± 0.015
GCGACC | 0.07588 ± 0.00049 | 1.88 ± 0.025 | 1.52 ± 0.038 | 0.5 ± 0.093
CCGACG | 0.527 ± 0.0072 | 1.9241 ± 0.0017 | 1.685 ± 0.0014 | 0.6331 ± 0.0049
GCGACG | 0.442 ± 0.017 | 1.81 ± 0.021 | 1.3 ± 0.099 | 0.666 ± 0.035
ACGACG | 0.162 ± 0.0022 | 1.82 ± 0.045 | 1.26 ± 0.019 | 0.706 ± 0.059
CCGACU | 0.195 ± 0.058 | 1.989 ± 0.013 | 1.82 ± 0.038 | 0.381 ± 0.0067
ACGACU | 0.28 ± 0.024 | 1.84 ± 0.039 | 1.59 ± 0.0056 | 0.447 ± 0.037
CCGAGA | 0.353 ± 0.076 | 1.87 ± 0.042 | 1.51 ± 0.046 | 0.648 ± 0.061
GCGAGA | -0.0976 ± 0.016 | 1.8 ± 0.042 | 1.31 ± 0.0073 | 0.312 ± 0.025
UCGAGA | 0.0619 ± 0.098 | 1.74 ± 0.046 | 1.16 ± 0.086 | 0.455 ± 0.15
ACGAGA | -0.0663 ± 0.023 | 1.67 ± 0.045 | 1.14 ± 0.019 | 0.488 ± 0.018
ACGAGC | 0.0832 ± 0.041 | 1.84 ± 0.049 | 1.27 ± 0.045 | 0.585 ± 0.029
CCGAGG | 0.00201 ± 0.0053 | 1.839 ± 0.0063 | 1.37 ± 0.038 | 0.423 ± 0.024
GCGAGG | -0.188 ± 0.032 | 1.637 ± 0.015 | 1.11 ± 0.036 | 0.5 ± 0.017
ACGAGG | -0.105 ± 0.022 | 1.412 ± 0.013 | 1.04 ± 0.14 | 0.777 ± 0.034
